Experimental data published in paper PMC10147923, “Pain-causing stinging nettle toxins target TMEM233 to modulate NaV1.7 function” (Nature Communications, 2023).
Several values for one entry are separate records, joined by “and”; a condition that tells them apart may be missing. Equal entries are not always repeated. Where two headings read alike, the source gives them in different places.

What was measured:
[1] = target: TMEM233 (Homo sapiens, UniProt B4DJY2); test: Currents in Cos-1 cells transfected with TMEM233 only; type: cell-based
Description: Whole-cell patch clamp experiments involving HEK293, COS-1, CHO, ND7/23, F11, SH-SY5Y and TE-671 cells were performed on a QPatch II automated electrophysiology platform (Sophion Bioscience, Ballerup, Denmark) as previously described. Cells at approximately 70–80% confluency were harvested from T75 flasks using TrypLE Express at 37 °C for 2–5 min and resuspended in DMEM with 25 mM HEPES (Sigma-Aldrich, NSW, Australia), 100 U/mL Penicillin-Streptomycin (Gibco) and 40 µg/mL trypsin inhibitor from Glycine max (soybean) (Sigma Aldrich) prior to recovery on a QStirrer (Sophion) for 30 min. 16-channel patch plates with a patch hole diameter of 1 μm and resistance of 2 ± 0.02 MΩ were used. Cell positioning and sealing parameters were as follows: positioning pressure −60 mbar, minimum seal resistance 0.1 GΩ, holding potential −100 mV, holding pressure −20 mbar. Whole-cell currents were filtered at 5 kHz and acquired at 25 kHz. Series resistance compensation was used and set to 70%.

[2] = target: T1, NaV1.7 (Homo sapiens, UniProt Q15858); type: cell-based; settings: Fig 6d
Description: Current-voltage (IV) curves were determined in HEK-NaV1.7 cells, in the absence and presence of TMEM233, from a series of step pulses (500 ms) ranging from −110 to +55 mV (5 mV increments, repetition interval 5 s) before and after incubation with ExTxA (1 μM) from a holding potential of −90 mV. Currents were converted to conductance (G) using G = I/(V − Vrev), with Vrev being the reversal potential, plotted against voltage and fitted with a Boltzmann equation to obtain GV (conductance-voltage) curves. Voltage dependence of steady-state fast inactivation was determined by a subsequent 10 ms pulse to −20 mV immediately following the 500 ms depolarization step detailed above to assess the available non-inactivated channels.

[3] = target: T1, NaV1.7; test: Effect of TMEM233 co-expression on ramp currents; type: cell-based; settings: Fig 6j
Description: The holding potential was −90 mV. After a 50 ms pulse to −100 mV, ramps from −100 mV to +20 mV at a rate of 0.2 and 1.0 mV/ms were applied before and after ExTxA (100 nM) addition.

[4] = target: T1, NaV1.7; test: Effect of TMEM233 co-expression on use-dependence; type: cell-based; settings: Fig 6l; for Use-dependence, predicted (LS) mean: n = 6
Description: Use-dependence experiments were performed on the Patchliner Quattro (Nanion Technologies GmbH, Munich, Germany) using an EPC 10 USB Quadro Patch Clamp Amplifier (HEKA Elektronik GmbH, Lambrecht/Pfalz, Germany) and PatchControlHT 2.01.30 and PatchMaster v2x90.4 beta softwares (HEKA Elektronik GmbH, Lambrecht/Pfalz, Germany). Cells at approximately 70–80% confluency were harvested from T75 flasks using Accutase (Thermofisher, Massachusetts, USA) at room temperature for 2–5 min and resuspended in high-glucose Dulbecco’s Modified Eagle Medium (DMEM) (Sigma-Aldrich, New South Wales, Australia) with 15 mM HEPES (Sigma-Aldrich, NSW, Australia) prior to recovery in the cell hotel of the Patchliner for 10 min. ECS contained (in mM): NaCl 140, KCl 4, CaCl2 2, MgCl2 1, HEPES 10, glucose 5. The pH was adjusted to 7.4 with NaOH, and the osmolarity was 298 mOsm. ICS contained (in mM): CsCl 50, NaCl 10, CsF 60, EGTA 20, HEPES 10. The pH was adjusted to 7.2 with CsOH, and the osmolarity was 285 mOsm. A seal enhancer was used containing (in mM): NaCl 80, KCl 3, MgCl2 10, CaCl2 35, HEPES Na^+ salt 10. The pH was adjusted to 7.4 with HCl, and the osmolarity was 298 mOsm. The seal enhancer was washed off before starting the experiments. HEK293 cells stably expressing hNaV1.7/ β1 or hNaV1.7/ β1/C-HA TMEM233 were used. Consecutive series of 30 depolarizing 20 ms pulses from −90 mV to −20 mV were applied with frequencies of 1 Hz, 2 Hz, 5 Hz, 10 Hz, and 20 Hz. After the experiment ExTxA (100 nM) was applied to confirm TMEM233 expression. The amplitude of the test current was normalized to the current induced by the first pulse of its series, with the last test pulse plotted as a function of frequency for statistical analysis.

[5] = target: T1, NaV1.7; type: cell-based
Description: To determine recovery from fast inactivation, a 20 ms pulse to 0 mV from a holding potential of −90 mV was used to induce fast inactivation. A subsequent recovery period, ranging from 1 ms to 2216 ms in 50% increments at −90 mV, was followed by a last 20 ms test pulses to 0 mV to determine the time-dependence of recovery from fast inactivation. The proportion of available channels was determined by normalizing peak currents from the last to the first pulse. A two-phase exponential equation was fit to the normalized current, plotted as a function of time, to determine the time constants τ1 and τ2 of recovery from fast inactivation.

[6] = tested on: hNaV1.7/TMEM233; test: Persistent current, CHO hNaV1.7/TMEM233; type: cell-based, human; settings: Supplementary Fig 1e

T1 sequence (Q15858 whole entry): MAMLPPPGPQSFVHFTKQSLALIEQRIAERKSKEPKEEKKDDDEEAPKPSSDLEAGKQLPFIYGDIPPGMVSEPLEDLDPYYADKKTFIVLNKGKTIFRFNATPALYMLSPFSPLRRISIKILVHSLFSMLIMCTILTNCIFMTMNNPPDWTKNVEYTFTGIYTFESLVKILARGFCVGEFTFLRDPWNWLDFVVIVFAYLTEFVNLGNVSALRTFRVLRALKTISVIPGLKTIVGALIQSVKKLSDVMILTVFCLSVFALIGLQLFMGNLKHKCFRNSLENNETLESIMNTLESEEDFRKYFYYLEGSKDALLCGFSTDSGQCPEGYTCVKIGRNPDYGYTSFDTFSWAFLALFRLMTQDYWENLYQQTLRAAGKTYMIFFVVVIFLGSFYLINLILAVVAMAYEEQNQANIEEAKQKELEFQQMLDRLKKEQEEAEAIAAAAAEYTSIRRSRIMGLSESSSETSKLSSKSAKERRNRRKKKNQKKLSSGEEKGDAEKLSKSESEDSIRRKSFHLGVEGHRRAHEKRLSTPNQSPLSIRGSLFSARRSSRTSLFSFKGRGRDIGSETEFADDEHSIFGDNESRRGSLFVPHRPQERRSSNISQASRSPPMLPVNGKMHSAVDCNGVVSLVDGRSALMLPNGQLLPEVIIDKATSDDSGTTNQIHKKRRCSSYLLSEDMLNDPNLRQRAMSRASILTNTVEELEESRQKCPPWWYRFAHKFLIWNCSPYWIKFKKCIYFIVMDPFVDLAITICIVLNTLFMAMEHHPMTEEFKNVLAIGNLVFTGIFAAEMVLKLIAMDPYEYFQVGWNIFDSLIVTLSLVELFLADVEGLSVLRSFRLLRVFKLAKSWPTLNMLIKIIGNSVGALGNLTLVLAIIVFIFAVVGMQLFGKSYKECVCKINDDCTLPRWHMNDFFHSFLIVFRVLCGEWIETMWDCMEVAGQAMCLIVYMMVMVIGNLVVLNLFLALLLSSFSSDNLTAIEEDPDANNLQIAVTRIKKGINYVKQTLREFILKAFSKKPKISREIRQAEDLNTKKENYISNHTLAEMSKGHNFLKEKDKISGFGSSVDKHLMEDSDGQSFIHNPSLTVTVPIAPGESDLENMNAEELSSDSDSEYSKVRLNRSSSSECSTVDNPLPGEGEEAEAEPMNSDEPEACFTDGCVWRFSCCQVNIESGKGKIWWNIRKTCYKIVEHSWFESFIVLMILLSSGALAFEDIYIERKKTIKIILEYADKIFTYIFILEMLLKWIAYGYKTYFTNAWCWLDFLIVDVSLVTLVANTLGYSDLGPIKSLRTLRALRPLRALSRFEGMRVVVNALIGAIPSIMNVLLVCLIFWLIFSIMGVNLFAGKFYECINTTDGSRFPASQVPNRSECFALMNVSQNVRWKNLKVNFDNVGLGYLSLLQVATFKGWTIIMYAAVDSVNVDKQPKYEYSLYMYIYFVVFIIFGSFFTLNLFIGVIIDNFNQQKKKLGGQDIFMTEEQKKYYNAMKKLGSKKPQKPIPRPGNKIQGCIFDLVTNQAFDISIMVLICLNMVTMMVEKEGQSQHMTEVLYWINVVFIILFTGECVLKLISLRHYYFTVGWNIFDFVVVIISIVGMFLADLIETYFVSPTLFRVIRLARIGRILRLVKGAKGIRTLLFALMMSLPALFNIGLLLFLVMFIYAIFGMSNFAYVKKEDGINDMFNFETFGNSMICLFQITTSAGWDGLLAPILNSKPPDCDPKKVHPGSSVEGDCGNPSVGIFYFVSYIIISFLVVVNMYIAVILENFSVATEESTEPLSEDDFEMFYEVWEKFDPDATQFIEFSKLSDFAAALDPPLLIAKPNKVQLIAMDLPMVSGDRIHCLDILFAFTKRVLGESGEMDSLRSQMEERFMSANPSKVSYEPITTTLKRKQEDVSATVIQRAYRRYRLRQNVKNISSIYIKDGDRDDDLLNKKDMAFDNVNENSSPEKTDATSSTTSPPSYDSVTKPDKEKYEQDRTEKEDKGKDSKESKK
T1 sequence (Q07699 19-218, further chain): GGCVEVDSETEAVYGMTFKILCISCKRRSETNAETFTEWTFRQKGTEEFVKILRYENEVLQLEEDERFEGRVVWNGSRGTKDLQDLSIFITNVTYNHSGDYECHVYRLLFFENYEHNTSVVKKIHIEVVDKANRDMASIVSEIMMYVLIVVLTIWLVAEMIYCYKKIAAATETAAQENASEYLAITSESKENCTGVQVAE

B1: TMEM233 (protein)
chain: MSQYAPSPDFKRALDSSPEANTEDDKTEEDVPMPKNYLWLTIVSCFCPAYPINIVALVFSIMSLNSYNDGDYEGARRLGRNAKWVAIASIIIGLLIIGISCAVHFTRNA
- Peak Current, difference between means (COS-1 TMEM233 - COS-1) ± SEM [1]: 55.71 ± 37.05
- Peak Current, individual values [1]: -254.824 and -273.19 and -178.816 and -233.506 and -232.738 and -200.138
- Peak Current, mean [1]: -228.9
- V50 of Activation ([2]; Nav1.7/β1/TMEM233, HEK, individual cells, one line each (n = 11)): -31.12 and -24.58 and -26.49 and -27.4 and -28.15 and -19.85 and -25.7 and -20.24 and -36.47 and -27.6 and -24.5
- V50 of Activation, mean ([2]; Nav1.7/β1/TMEM233, HEK, mean, n = 11): -26.55
- V50 of Activation, difference between means (B - A) ± SEM ([2]; Nav1.7/β1/TMEM233 minus Nav1.7/β1 (Mock), unpaired t test, P value 0.8489): -0.4462 ± 2.301
- Peak current ramp 1 mV/ms, mean ([3]; NaV1.7-TMEM233, mean of n = 9, NaV1.7 + pcDNA3.1 mean -0.1808, n = 11, analysis title says (+ExTxA)): -0.1202
- Peak current ramp 1 mV/ms, individual values ([3]; NaV1.7-TMEM233, single replicates, analysis title says (+ExTxA)): -0.1309 and -0.159 and -0.09062 and -0.1816 and -0.1566 and -0.06849 and -0.0929 and -0.1073 and -0.09446
- Peak current ramp 1 mV/ms, difference between means (TMEM233 - pcDNA3.1) ± SEM ([3]; unpaired t test P = 0.0914 (ns), 95% CI -0.01079 to 0.1320): 0.06063 ± 0.03399
- Use-dependence, predicted (LS) mean diff. (NaV1.7 - NaV1.7 + TMEM233) ([4]; 1 Hz, Šídák's adjusted P >0.9999, 95% CI -0.1024 to 0.1060): 0.001783
- Use-dependence, predicted (LS) mean diff. (NaV1.7 - NaV1.7 + TMEM233) ([4]; 2 Hz, Šídák's adjusted P 0.9266, 95% CI -0.07138 to 0.1370): 0.0328
- Use-dependence, predicted (LS) mean diff. (NaV1.7 - NaV1.7 + TMEM233) ([4]; 5 Hz, Šídák's adjusted P 0.8365, 95% CI -0.06345 to 0.1449): 0.04074
- Use-dependence, predicted (LS) mean diff. (NaV1.7 - NaV1.7 + TMEM233) ([4]; 10 Hz, Šídák's adjusted P 0.4449, 95% CI -0.04066 to 0.1677): 0.06353
- Use-dependence, predicted (LS) mean diff. (NaV1.7 - NaV1.7 + TMEM233) ([4]; 20 Hz, Šídák's adjusted P 0.0161 (*), 95% CI 0.01628 to 0.2247): 0.1205
- Use-dependence, predicted (LS) mean ([4]; NaV1.7 + TMEM233, 1 Hz, NaV1.7 0.9861, n = 8): 0.9843
- Use-dependence, predicted (LS) mean ([4]; NaV1.7 + TMEM233, 2 Hz, NaV1.7 0.9649, n = 8): 0.9321
- Use-dependence, predicted (LS) mean ([4]; NaV1.7 + TMEM233, 5 Hz, NaV1.7 0.9335, n = 8): 0.8928
- Use-dependence, predicted (LS) mean ([4]; NaV1.7 + TMEM233, 10 Hz, NaV1.7 0.8933, n = 8): 0.8298
- Use-dependence, predicted (LS) mean ([4]; NaV1.7 + TMEM233, 20 Hz, NaV1.7 0.8046, n = 8): 0.6842
- Tau (Fast) RFFI, individual values [5]: 7.679
- Tau (Fast) RFFI, mean ([5]; Fig 6i, NaV1.7/β1/TMEM233, mean of n = 18, NaV1.7/β1 (Mock) mean 6.695, n = 8): 9.635
- Tau (Fast) RFFI, individual values ([5]; Fig 6i, NaV1.7/β1/TMEM233, single replicates): 8.086 and 8.074 and 13.19 and 9.314 and 15.71 and 7.639 and 9.188 and 12.89 and 5.959 and 5.962 and 16.54 and 10.99 and 8.961 and 6.569
- Tau (Fast) RFFI, difference between means (Mock - TMEM233) ± SEM ([5]; Fig 6i, unpaired t test P = 0.0236, 95% CI -5.450 to -0.4305): -2.940 ± 1.216
- Tau Fast, mean ([5]; Fig 6m, co-expression with NaV1.7/β1, mean of n = 7, NaV1.7/β1 mean 6.051, n = 16): 10.53
- Tau Fast, individual values ([5]; Fig 6m, co-expression with NaV1.7/β1, single replicates): 9.314 and 15.71 and 7.639 and 8.588 and 10.41 and 9.188 and 12.89
- Tau Fast, mean diff. NaV1.7/β1/TMEM233 vs. NaV1.7/β1 ([5]; Fig 6m, Tukey's adjusted P 0.0002, 95% CI 2.091 to 6.876): 4.484
- Tau Fast, mean diff. vs. NaV1.7/β1/TMEM233 35-109 ([5]; Fig 6m, Tukey's adjusted P 0.0026, 95% CI 1.415 to 7.059): 4.237
- Persistent Current, mean ([6]; TMEM233 column, toxin not named, mean of n = 16, Control mean -0.0001975, n = 6): -2.01
- Persistent Current, individual values ([6]; TMEM233 column, toxin not named, single replicates): -0.5607 and -1.881 and -2.243 and -3.609 and -4.773 and -1.301 and -2.129 and -2.32 and -2.174 and -2.568 and -0.4229 and -2.1714 and -2.227 and -1.642
- Persistent Current, difference between means (TMEM233 - Control) ± SEM ([6]; unpaired t test P = 0.0003, 95% CI -2.968 to -1.051): -2.010 ± 0.4595
